# Test: yeast display, Sf9 membrane polyspecificity reagent, FACS + sequencing; frameworks hold sequencing errors
# Procedure, shortened: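 Polyreactivity labels are assigned by the sorting gate from which each nanobody was recovered. The gates were low and high (top ~1%), set on anti-HA fluorescence for expression and streptavidin fluorescence for reagent binding. Before sorting, galactose-induced (36–48 hours) yeast display cells were stained for 1 hour at 4 °C with 10% biotinylated, detergent-solubilized Sf9 membrane reagent.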
row,Sequence,polyreactivity (PSR sort gate)
1,QVQLVESGGGLVQAGGSLRLSCAASGFTFGYYGMGWSRQAPGKERELVAGISSSGSRTYYADSVKGRFTISRDNAKNTVYLQMNSLKPEDTAVYYCNKYYSGKSYTGEDYWGQGTQVTVSS,high polyreactivity
2,QVQLVESGGGLVQAGGSLRLSCAASGITFEYYTMGWYRQAPGKERELVAAITQGGGTTYYADSVKGRFTISRDNAKNTVYLQMNSLKPEDTAVYYCAAYVGYLLLYYPTYYYWGQGTQVTVSS,low polyreactivity
3,QVQLVESGGGLVQAGGSLRLNCAASGSTFGRNAKGWYRQAPGKERELVAAISLSTGSTYDADSVKGRFTISRDNAKNTVYLQMNSLKPEDTAVYYCAKEWGHPYHFLYYYWGQGTQVTVSS,high polyreactivity
4,QVQLVESGGGLVQAGGSLRLSCAASGNIFDRNAMGWYRHAPGKQRELVAAISRSGGRTYYADSVKGRFTISRDNAKNTVYLQMISLKPEDTGVYYCATTYGGTYEYDYWGQGTQVTVSS,high polyreactivity
5,QVQLVESGGGLVQAGGSLPLSCAASGSIFWRNAMGWYRQAPGKEREFVATITWSGDSTYYADSVKGRFTISRDNAKNTVYLQMNSLKPEDTAVYYYAAAYSNWHPGLDYWGQGTPVTVSS,low polyreactivity
6,QVQLVESGGGLVQAGGSLRLSCAASGRIFVRYAMGWYRQAPGKEREWVAVSTTGGARTRDADSVKGRFTISRDNAKNSVYLQMNSLKPEDTGVYYCAAQTYSQRWYDYWGQGTQVTVSS,high polyreactivity
7,QVQLVESGGCLVQAGGSLRLSCAASGRIFPGYAMGWYRQAPGKESEFVAAITASGGTTYYADSVKGRFTISRDNAKNTVYLQMNCLKPEDTAVYYCAKYRYTVAGYNYWGQGTQVTVSS,high polyreactivity
8,QVQLVESGGGLVQAGGSLRLSCDASGLTFAYYAMGWYRQAPGKERELVAAISSSGGRTYYADSVKGRFTISRDNAKNTVYLQMNSLKPEDTAVYYCAKSRYSTQTDYNYWGQGTQVTVSS,high polyreactivity
9,QVQLVESGGGLVQAGGSLRLSCAASGFTFYYNAMGWYRQAPGKERELVASISRGTSTNYADSVKGRFTISRDNAKNTVYLQMNSLKPEDTAVYYCAAKSYSDYDYWGQGTQVTVSS,low polyreactivity
10,QVQLVESGGGLVQAGGSLRLSCAASGFTFYRYAMGWYRQAPGKERELVAAITNGGGTYYADSVKGRFTISRDNAKNTVYLQMNSLKPEDTAVYYCAAKSRLPTQGLGIYYWGQGTQVSVSS,high polyreactivity
11,QVQLVESGGGLVQAGGSLRLSCAASGRIFSNNAMGWYRQAPGKERELVAAIDSSGDSTNYADSVKGRFTISRDNAKNTVYLQMNSLKPEDTAVYYCNARQSGRRVWQYLYGYWGQGTQVTVSS,high polyreactivity
12,QVQLVESGGGLVHAGGRLRLSCPPSGRIFSYYTMGWYRQAPGKERELVAAISRGVSTNYADSVKGRFTISRDNAKNTVYLQMNSLKPEYSAVYYCNARHTWYYKYLHEYWGQGTQVTVSS,high polyreactivity
13,QVQLVESGGGLVQAGGSLRLICAASGSTFYTYAMGWYRQAPGKERELVAAITYSGGTTYYADSVKGRFTISRDSAKNTVYLQMNSLKPEDTAFYYCNTRSYYYSDDYWGQGTQVTVSS,low polyreactivity
14,QVQLVESGGGLVQAGGSLRLSCAASGRIFSIYAMGWYRQAPGKERELVASINSGDSTYYADSVKGRFTISRDNAKNTVYLQMNSLKPEDTAVYYCAATLVTVPLYRFDYWGQGTQVTVSS,low polyreactivity
15,QVQLVESGGGLVQAGGSLRLSCAASGIIFYYYAMGWYRQAPGKERELVAAISWSGDGTYYADSVKGRFTISRDKAKNTVYLQMNSLKPEDTAVYYCAALNDGFTGYDYLDEYTDYGYWGQGTQVTVSS,low polyreactivity
16,QVQLVESGGGLVQAGGSLRLSCSASGSTFDGNAMVWYRQAPGKERELVAAITQRASNTYYADSVKGRFTISRDNAKNTVYLQMNSLKPEDTAVYYCNADFYVTSAEFYYWGQGSQVTVSS,low polyreactivity
17,QVQLVESGGGLVQAGGSLRLSCAASGRNFYHYAMGWYRQAPGKEREFVAAISVSGGRTYYADSVKGRFTISRDNAKNTVYLQMNSLKPEDTAVYYCAAEPEWPYGRFDYWGQGTQVTVSS,high polyreactivity
18,QVQLVESGGGFVQAVGSLRLSCAASGSTFPRYVLGWYRQAPGTARELVAAITWRGSTNDADSVKGRFTISRDNAKNTVYLQMNSLKPEDSAVYYCAAAFFARDRKRYNYWGQGTQVTVSS,high polyreactivity
19,QVQLVESGGGLVHAGGSLRLSCAASGFTFGGYALGWYRQAPGKERELVAAITGSGGNTFYADSVKGRFTISRDNAKNTVYLQMNSLKPEDTAVYYCAKTWYPWSRYGYYRRYDSWGQGTQVTVSS,low polyreactivity
20,QVQLVESGGGLVQAGGSHRLSCAASGNTFYDYAMGWYRQAPGKERELVAAISSDGNTYYADSVKGRFTFSRDNAKKTVYLQMNSLKPVDTAVYYCAADAWRYYYLSWFGSIGFDYWGQGTQVTVSS,high polyreactivity

row,Sequence,polyreactivity (PSR sort gate)
1,QVQLVESGGGLVQAGGSLRLSCAASGRIFQYYAMGWYRQAPGKEREFVAAISDSGSNTYYADSVKGRFTISCDKAKNTVYLQMNSLKPEDTAVSYCAALYATRALFYFWGQGTQVTVSS,low polyreactivity
2,QVQLVESGGCLVQAGGSLRLSCAASGSLFKPYAMGWYIQAPGKEREFVAAINRGGTSTYYADSVKGRFTIARDNAKNTVFLQMKSLKPEDTAVYYCNAESPYYADGDTVRDDYWGQGTQVTVSS,low polyreactivity
3,QVQLVESGGGLVQAGGSLRLSCAASGRTFWYYAMGWYRQAPGKERELVAAISTTGSSTYYADSVKGRFTISRDNAKNTVYLQMNSLKPEDTAVYYCAADSGAQYKYLWGYDYWGQGTQVTVSS,low polyreactivity
4,QVQLVESGGGLVQAGGSLRLSCAASGIIIDYYTMGWYRQAPGKERELVAAINKSGGSTYADSVKGRFTISRDNAKNTVYLQMKSLKPEDTAVYYCAAEVDYSDWPEYARKYYYWGQGTQVTVSS,low polyreactivity
5,QVHLVESGGGLVHAGGSLRLSCAASRSTFRNYAMGWYRQAHGKEREFVATINWIGGTTYYADSVKGRFTLSRDNAKNTVDLQMNSLKPVDTGVYYCAAQFDYYPWGGYWGQGTQVTVSS,high polyreactivity
6,QVQLVESGGGLVQAGGSLRLSCAASGFIFGFYAMGWYRQAPGKERELVAAISGGGGRTNYADSVKGRFTISRDNAKNTVYLQMNSLKPEDTAVYYCARSPSYYSYTFGRQAYGNDYWGQGTQVTVSS,high polyreactivity
7,QVQLVESGGGLVQAGGSLRLSCAASGSILYSNAMGWYRQAPGKERELVAVITWGGGSTYYADSVKGRFTISRDNAKNTVFLQMNSLKPEDTAVYYCAARARRGLRAYVELDYWGQGTQVTVSS,low polyreactivity
8,QVQLVESGGGLVQAGGSLRLSCAASGLTLYRYAMGWYRQAPGKEREFVASISWSGGSTYYADSVKGRFTISRDNANNTVYLQMNSLKPEDTAVYYCATDSDTSQLGYDYWGQGTQVTVSS,low polyreactivity
9,QVQLVESGGGLVQARGSLRLSCAASGRIFSPYAMGWNRQAPWKERELVASITSGGTTNYADSVKGRFTISRDNAKNTVYLQMNSLKTEDTAVYYCATTYSYDDKFTSTLVDPDYGYWGQGTQVTVSS,low polyreactivity
10,QVQLVESGGGLVQAGGSLRLSCAASGRTFRVYAMGWYRQAPGKERELVAAINGGGSTNYADSVKGRFTISRDNAKNTVYLQMNSLKPEDTAVYYCIATGRRSKRIYDYWGQGTQVTVSS,high polyreactivity
11,QVHLVESGGGLVQAGGSLRLSSAASGRIFDRYAMGWYRQAPGKERELVAAITSRADRTYYADSLKGRFTISRDNAKNTVYLQMNSLKPEDTAVYYCNTDKKYRHRYGGILDYWGQGTEVTVSS,high polyreactivity
12,QVQLVESGGGLVQAGGSLRLSCAASGRTFYYYAMGWYRQAPGKERELVAGINSGGSTNYADSVKGRFTISRDNAKNTVYLQMNSLKPEDTAVYYCAVEDLVSEGWGWYKEMDYWGQGTQVTVSS,low polyreactivity
13,QVQLVESGGGLVQAGGSLRLSCAASGSTFSVNAMGWYRQAPGKERELVAAISSTGSTKYADSVKGRFTISRDNAKNTVYLQIISLKPEDTAVYCAASNADYEYYPFSDWYFSPYDYWGQGTQVTVSS,low polyreactivity
14,QVQLVESGGGLVQAGGSLRLSCAASGSTFDYYAMGWYRPAPGKERELVAGINRDDGNTYYADSVKGRFTISRDNAKNTVYLQMNSLKPEDTAVYYCAADSSWQGMDYSGQGTQVTVSS,low polyreactivity
15,QVQLVESGGGLVQAGGSLRLSCAASGITFSVYTMGWYRQAPGKERELVAAIDSDGITNYADSVKGRFTISRDNAKNNVYLQMNSLKPEDTAVYYCAKQSGRADGVSGFDYWGQGTQVTVSS,low polyreactivity
16,QVQLVESGGGLVQAGGSLRLSCAASGLTFDPYAMGWYRQAPGKEREFVAAINSDDGSTYYADSVKGRFTISRDNAKNTVYLQMNSLKPEDTAVYYCNADLAHFLWYQYDYWGQGTQVTVSS,low polyreactivity
17,QVQLVESGGCLVQAGGSLRLSCASSGSTFHSYAMGWYRQAPGKERELVAAISRSGGSTYYADSVKGRFTISRDNAKNTVYLQMNSLKPEDTAVYYCAARDLQFSGYYYWGQGTQVTVSS,high polyreactivity
18,QVQLVESVGGLVQAGGSLRLSCAASGRIFGRYAMGWYRQAPGKESELVAAISTNGGRTYYADSVKGRFTISRDNAKNTVYLQRKSLKPEDNADYYCARAYRGPGYVIRYDYWGQGTQVTVSS,high polyreactivity
19,QVHLVESGGGLVQAGGSLRLSCAASGFIFGYNARGWYRQAPAKERELVAAINWSGGRTYYADSVKGRFTISRDIAKNTVYLQMNSLKPEVTAVSYCNADGSRRYNYWGQGSQVTVSS,low polyreactivity
20,QVQLVESGGGLVQAGGSLRLSCAASGSNFSYYTMGWYRRATGKERELVAGITWSGGGTSYADSVKGRFTISRDNAKNTVYVQMNSLKPEDTAVYYCAAVDIGRYYRLDYWGQGTQVTVSS,low polyreactivity

# Source: the nanobody polyreactivity screen of Harvey et al. (2022)
